Experimental findings from patent US20240000938A1 are described below.

For assay [1], the target named is HLA-A*02 on cells (human). In words: cell-based or functional assay.
In assay [2] the target is streptavidin-PE-HLA-A*02-pMHC or streptavidin-APC-HLA-A*02-pMHC tetramer (human). In words: flow cytometry; HLA-A*02 positive donor primary T cells with CAR and A*02 blocker, before B2M knockout.
Assay [3] shares this target. As to the kind of experiment: flow cytometry; HLA-A*02 positive donor primary T cells with CAR and A*02 blocker, after B2M knockout with sgRNA B2M-3.
For assay [4] the target is unchanged. In words: flow cytometry; HLA-A*02 positive donor primary T cells with CAR and A*02 blocker, after B2M knockout with sgRNA B2M-6.

Where only a bound is given, the exact number is not on record here.

Turning to “HLA-A*02 PA2.1 ScFv LIR1 inhibitor (C1765) (from UniProt Q8NHL6 398-650)”, in assay [1], the inhibition of IFNγ induction in primary T cells (HeLa cells) was > 5 fold, the inhibition of IFNγ induction in primary T cells (SiHa cells) is > 10 fold and the suppression of pan HLA scFv CAR signal (T2 cells) was < 25 fold. In assay [2], the % of cells negative for the A*02 blocker probe was > 85% and the % of the cell population stained with the A*02 blocker probe is 14.8%. In assay [3], this substance registered a % of the cell population stained with the A*02 blocker probe of 40.7%. The substance also had a % of the cell population stained with the A*02 blocker probe in assay [4] of 44%.
